From patent US20260139001A1 (Harvard, published 2026)

Biological target: RBD (Severe acute respiratory syndrome …, UniProt P59594)

B1: Wuhan-NS (VHH72 NoK V104K conjugated with NBD-x; V104NBDxK) (VHH)
VHH: QVQLQESGGGLVQAGGSLRLSCAASGRTFSEYAMGWFRQAPGREREFVATISWSGGSTYYTDSVRGRFTISRDNARNTVYLQMNSLRPDDTAVYYCAAAGLGTKVSEWDYDYDYWGQGTQVTVSS
**Q.** B1 was tested. Which EC50 did it give?
**A.** 123 nM
